Tested on: T1, B domain deleted FVIII (BDD FVIII), unmutated
T1 sequence: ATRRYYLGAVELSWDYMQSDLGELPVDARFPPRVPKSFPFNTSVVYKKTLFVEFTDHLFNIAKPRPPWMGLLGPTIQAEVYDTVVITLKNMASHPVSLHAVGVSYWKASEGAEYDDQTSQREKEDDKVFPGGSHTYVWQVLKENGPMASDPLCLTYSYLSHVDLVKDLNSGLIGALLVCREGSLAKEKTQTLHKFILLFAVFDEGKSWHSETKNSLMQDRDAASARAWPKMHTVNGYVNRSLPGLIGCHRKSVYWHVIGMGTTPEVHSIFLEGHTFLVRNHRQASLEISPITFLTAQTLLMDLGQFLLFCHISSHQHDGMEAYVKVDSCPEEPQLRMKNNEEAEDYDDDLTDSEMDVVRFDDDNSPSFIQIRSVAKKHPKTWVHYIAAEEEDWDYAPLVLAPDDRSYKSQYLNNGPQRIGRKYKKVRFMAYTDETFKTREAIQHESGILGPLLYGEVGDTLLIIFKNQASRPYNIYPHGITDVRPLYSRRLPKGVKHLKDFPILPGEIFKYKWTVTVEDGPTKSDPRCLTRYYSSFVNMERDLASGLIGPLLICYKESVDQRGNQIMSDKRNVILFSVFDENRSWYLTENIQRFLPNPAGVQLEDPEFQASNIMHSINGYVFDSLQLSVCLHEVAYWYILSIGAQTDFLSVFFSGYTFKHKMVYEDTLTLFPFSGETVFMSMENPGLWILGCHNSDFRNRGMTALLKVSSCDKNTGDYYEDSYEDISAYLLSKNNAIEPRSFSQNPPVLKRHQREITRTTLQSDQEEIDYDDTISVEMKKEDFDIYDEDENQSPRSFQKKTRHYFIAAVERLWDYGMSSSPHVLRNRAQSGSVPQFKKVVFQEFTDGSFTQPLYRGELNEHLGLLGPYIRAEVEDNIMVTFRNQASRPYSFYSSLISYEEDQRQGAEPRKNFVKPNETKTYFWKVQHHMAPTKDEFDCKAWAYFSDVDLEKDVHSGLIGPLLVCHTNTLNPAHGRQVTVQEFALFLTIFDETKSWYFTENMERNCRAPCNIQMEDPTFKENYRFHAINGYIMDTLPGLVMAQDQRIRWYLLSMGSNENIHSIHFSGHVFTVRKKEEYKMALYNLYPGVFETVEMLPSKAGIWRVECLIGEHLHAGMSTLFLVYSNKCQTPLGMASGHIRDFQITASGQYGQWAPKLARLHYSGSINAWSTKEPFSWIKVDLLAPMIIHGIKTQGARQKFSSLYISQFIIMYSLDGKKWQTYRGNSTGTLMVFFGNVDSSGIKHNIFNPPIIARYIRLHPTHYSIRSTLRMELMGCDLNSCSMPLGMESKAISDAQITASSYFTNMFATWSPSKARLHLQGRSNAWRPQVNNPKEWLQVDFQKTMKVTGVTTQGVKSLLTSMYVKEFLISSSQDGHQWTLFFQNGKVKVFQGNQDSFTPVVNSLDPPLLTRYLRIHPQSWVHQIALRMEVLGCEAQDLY

thrombin (Haematologic Technologies, Essex Junction, Vt.)
thrombin cleavage, SDS-PAGE with silver staining: Thrombin digestion of the muteins and control produced the expected cleavage fragments.

— patent US20150306234
